{"source": "patent US20060257366A1", "target": "CH-296 retronectin fragment (UniProt P02751)", "sequence (P02751 1361-2107)": "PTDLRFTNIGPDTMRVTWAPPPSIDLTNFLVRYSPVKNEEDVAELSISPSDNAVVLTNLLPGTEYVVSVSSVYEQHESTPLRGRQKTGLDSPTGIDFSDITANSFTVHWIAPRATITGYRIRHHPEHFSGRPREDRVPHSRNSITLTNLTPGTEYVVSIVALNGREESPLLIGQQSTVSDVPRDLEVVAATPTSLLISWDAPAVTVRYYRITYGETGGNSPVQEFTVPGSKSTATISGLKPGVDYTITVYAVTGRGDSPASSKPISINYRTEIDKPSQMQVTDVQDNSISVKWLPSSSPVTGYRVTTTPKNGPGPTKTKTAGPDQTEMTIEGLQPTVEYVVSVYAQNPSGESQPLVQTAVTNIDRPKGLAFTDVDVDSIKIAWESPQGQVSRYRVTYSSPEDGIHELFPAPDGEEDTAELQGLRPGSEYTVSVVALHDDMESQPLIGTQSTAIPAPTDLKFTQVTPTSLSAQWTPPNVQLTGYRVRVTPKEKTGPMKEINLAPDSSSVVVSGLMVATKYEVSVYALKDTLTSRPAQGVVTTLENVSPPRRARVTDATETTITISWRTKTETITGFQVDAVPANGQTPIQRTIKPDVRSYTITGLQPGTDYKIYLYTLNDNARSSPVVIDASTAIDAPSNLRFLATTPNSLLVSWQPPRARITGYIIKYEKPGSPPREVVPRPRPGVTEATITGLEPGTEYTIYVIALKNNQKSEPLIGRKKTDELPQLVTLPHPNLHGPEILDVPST", "assay": "cell-based or functional assay", "data": [{"substance": "RD114/TR chimeric glycoprotein", "values": [{"measurement": "transduction efficiency of human CD34+ cells on retronectin-coated plates (% GFP+ cells)", "result": 10, "unit": "fold"}]}]}
